Laboratory results from US20230331817A1 (The Regents of the University of California, priority 2020, published 2023).

Assays:
[1] = test system: primary human dermal skin fibroblasts; assay: Resazurin reduction (alamarBlue) viability assay, skin fibroblasts; format: cell-based
Procedure: (§1) Resazurin reduction assay (Fisher Scientific) was used to evaluate the potential cytotoxicity of antifibrinolytic agents toward primary human endothelial cells and skin fibroblasts. Phosphate buffer that was used to dissolve the samples was included as negative control. The assay is based on reduction of the non-fluorescent dye resazurin, to the highly fluorescent resorufin by viable cells. […] Briefly, cells in 96-well cell culture plates were treated with different concentrations of antifibrinolytic compounds (as described above). After 24 hours resazurin reagent was added to each well and the plates were incubated at 37° C. for 4 hours. Fluorescence was measured by the FLUOstar Omega Microplate Reader (BMG Labtech) using an excitation wavelength of 544 nm and an emission wavelength of 590 nm. Each assay was done in duplicate, with three replicates each. The viability was evaluated based on comparison with untreated cells.

[2] = test system: primary human dermal skin fibroblasts; conditions: 24 hours; 30 μM KD1TM, 30 μM BPTI, 60 mM EACA, 30 mM TXA
Description: (§2) Primary human pooled umbilical vein endothelial cells (HUVEC) were obtained from ATCC. The cells were maintained in Vascular Cell Basal Medium (ATCC), supplemented with the Endothelial Cell Growth Kit-BBE (ATCC) and Penicillin-Streptomycin-Amphotericin B (ATCC). Primary human dermal skin fibroblasts were obtained from LONZA and maintained in Fibroblast Basal Medium (FBMTM, LONZA), supplemented with a cocktail of growth factors, fetal bovine serum and antibiotics (FGMTM-2 SingleQuots™, LONZA). All cells were maintained in a humidified 5% C02 atmosphere at 37° C. and were passaged once they reached 80% confluence. All experiments were performed with cells in the logarithmic growth phase.
(§3) For toxicity studies, cells were seeded into 96-well or 24-well cell culture plates at 3,500 cells/cm2 and were used for experiments once they reached 80% confluence.
(§4) Cell toxicity and cell death was evaluated with the CellTox™ Green Cytotoxicity Assay (Promega). This assay measures changes in membrane integrity that occur as a result of cell death. The dye used in the system is excluded from viable cells but binds to DNA in compromised cells, which results in a fluorescent signal. We measured cell death in HUVEC and primary fibroblasts treated with antifibrinolytic agents at 4 concentrations (as indicated above) with triplicates per concentration in 24-well plates after 24 hours of exposure. Hoechst (Thermo Fisher Scientific) was used to stain all nuclei. Images of cells were captured using an inverted microscope (Nicon; Edipse T2000 TE). Green fluorescent cells (FITC filter) and Hoechst stained cells (DAPI filter) were counted using Image J software.

[3] = test system: HUVEC; conditions: 24 hours; 30 μM KD1TM, 30 μM BPTI, 60 mM EACA, 30 mM TXA
Description: as §2, §3, §4

[4] = test system: HUVEC; format: cell-based, human
Procedure: as §1

[5] = test system: plasmin induced lysis of clot formed in whole blood; assay: Thromboelastography, plasmin induced clot lysis in whole blood; format: biochemical, human; conditions: for G / LY30 / LY60 / MA: NHB + […] plasmin
Procedure: Plasmin and CaCl2) were added last to initiate simultaneous clotting and fibrinolysis. […] The thromboelastograph was calibrated each day and each inhibitor concentration was tested in duplicate. TEG Analytical Software (version 4.2.2; Haemonetics Corporation, Braintree, MA) was used to calculate the time to clot initiation (R), maximal clot strength (maximal amplitude (MA), which was directly related to the shear elastic modulus strength, G), and percent lysis 60 minutes after MA (LY60) (42).

[6] = target: T1, FXa (Homo sapiens, UniProt P00742); assay: Protease inhibition assay, factor Xa; format: biochemical; conditions: 1 nM FXa
T1 construct: FXa, factor Xa
T1 sequence (P00742 235-488 limits assumed): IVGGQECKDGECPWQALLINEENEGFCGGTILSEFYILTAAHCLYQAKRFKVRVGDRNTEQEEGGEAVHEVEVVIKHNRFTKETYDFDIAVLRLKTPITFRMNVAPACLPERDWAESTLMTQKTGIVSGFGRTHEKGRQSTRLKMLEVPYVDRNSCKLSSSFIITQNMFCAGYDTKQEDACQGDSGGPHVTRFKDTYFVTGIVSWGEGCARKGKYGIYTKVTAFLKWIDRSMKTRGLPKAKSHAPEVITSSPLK
T1 sequence (P00742 41-179 limits assumed): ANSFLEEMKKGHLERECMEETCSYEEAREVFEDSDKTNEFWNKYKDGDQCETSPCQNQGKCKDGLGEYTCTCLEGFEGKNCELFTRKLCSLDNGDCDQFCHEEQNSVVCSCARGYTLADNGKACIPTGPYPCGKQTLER
Procedure: FIG. 2. Data from Equilibrium inhibition constants (Ki) of KD1Y11T/R15KL17R-KT with plasmin, FXIa, kallikrein (KLK), FVIIa/sTF and FXa. Percent activity of 3 nM human plasmin remaining in the presence of various concentrations (0.05 to 19.2 nM) of KD1Y11T/R15KL17R-KT (●) or BPTI (◯). And percent activity of 1 nM human FXIa (▴), 1 nM human kallikrein (●), 20 nM human FVIIa/sTF (Δ) and 1 nM FXa (♦) remaining in the presence of various concentrations (1 μM to 30 μM) of KD1Y11T/R15KL17R-KT.
Ki values for each inhibitor were calculated using the tight binding equations.

[7] = target: T2, human plasmin (human, UniProt P00747 97-810); assay: cell-based or functional assay
T2 sequence (P00747 97-810 limits assumed): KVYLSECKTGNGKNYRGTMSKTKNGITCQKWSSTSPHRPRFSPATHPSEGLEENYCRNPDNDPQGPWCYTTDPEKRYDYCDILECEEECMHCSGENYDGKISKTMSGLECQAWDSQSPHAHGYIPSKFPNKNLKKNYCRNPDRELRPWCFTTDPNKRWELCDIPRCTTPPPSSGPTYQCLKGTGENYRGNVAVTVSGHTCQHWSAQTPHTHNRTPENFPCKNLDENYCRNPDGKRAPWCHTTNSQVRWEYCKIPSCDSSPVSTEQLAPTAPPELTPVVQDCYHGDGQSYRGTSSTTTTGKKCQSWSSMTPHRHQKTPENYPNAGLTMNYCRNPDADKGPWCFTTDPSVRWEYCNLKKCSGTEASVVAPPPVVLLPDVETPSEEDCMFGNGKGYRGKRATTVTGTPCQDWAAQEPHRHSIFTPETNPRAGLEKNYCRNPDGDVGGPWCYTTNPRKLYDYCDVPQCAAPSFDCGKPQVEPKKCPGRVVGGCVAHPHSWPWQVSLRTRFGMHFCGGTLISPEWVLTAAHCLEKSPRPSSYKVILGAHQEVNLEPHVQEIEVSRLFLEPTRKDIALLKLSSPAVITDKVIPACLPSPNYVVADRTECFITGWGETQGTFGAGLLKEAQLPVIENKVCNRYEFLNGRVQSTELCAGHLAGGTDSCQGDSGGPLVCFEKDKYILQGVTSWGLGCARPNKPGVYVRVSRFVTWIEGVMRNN

[8] = target: T2, human plasmin; assay: protease amidolytic inhibition, tight-binding equation
[9] = target: T2, human plasmin; assay: residual activity of 3 nM plasmin (percent fractional activity by the legend; the axis is labelled % Pm Inhibition), substrate S-2251 [A]
[10] = test system: tPA-induced plasma clot fibrinolysis; assay: Fibrinolysis (clot lysis) assay in normal pooled plasma; format: biochemical; conditions: human NPP
Procedure: The method of Sperzel and Huetter (40) was followed with minor modifications as outlined earlier (32,41). Briefly, IIa was used to initiate fibrin formation in NPP and the lysis of the formed clot (fibrinolysis) was induced by simultaneous addition of tPA. Clot formation and lysis were monitored with a Molecular Devices microplate reader (SPECTRAmax 190) measuring the optical density at 405 nm. […] Two hundred twenty-five μL of this mixture was then added to 25 μL IIa and tPA in TBS/BSA containing 25 mM CaCl2). In the 250 μL final volume, concentration of IIa was 0.15 μg/ml and that of tPA was 1 μg/ml. Under control conditions (zero tPA and zero test compound), OD405 increased immediately indicating clotting followed by an extremely slow decrease representing fibrinolysis. As clotting was almost complete after 5 minutes, fibrinolysis induced by tPA was evaluated as a relative decrease of OD405 up to 60 minutes.
Addition of thrombin (IIa) to human normal pooled plasma (NPP) caused fibrin formation, which is reflected by the increase in OD405 (black curve, FIGS. 3A and 3B). Simultaneous addition of tPA caused initial clot formation followed by dissolution of fibrin induced by tPA-mediated conversion of plasminogen to plasmin (black curve with closed circles, FIGS. 3A and 3B); the midpoint of fibrinolysis was ˜8 min in each case. Both antifibrinolytic agents inhibited fibrinolysis in a dose-dependent manner.

[11] = target: T3, Plasma kallikrein (pKLK) (Homo sapiens, UniProt P03952); assay: Protease inhibition assay, plasma kallikrein; format: biochemical; conditions: 1 nM kallikrein
T3 construct: Plasma kallikrein (pKLK) was from Enzyme Research Laboratories; purchased Enzyme Research Laboratories (South Bend, IN)
T3 sequence (P03952 20-390 limits assumed): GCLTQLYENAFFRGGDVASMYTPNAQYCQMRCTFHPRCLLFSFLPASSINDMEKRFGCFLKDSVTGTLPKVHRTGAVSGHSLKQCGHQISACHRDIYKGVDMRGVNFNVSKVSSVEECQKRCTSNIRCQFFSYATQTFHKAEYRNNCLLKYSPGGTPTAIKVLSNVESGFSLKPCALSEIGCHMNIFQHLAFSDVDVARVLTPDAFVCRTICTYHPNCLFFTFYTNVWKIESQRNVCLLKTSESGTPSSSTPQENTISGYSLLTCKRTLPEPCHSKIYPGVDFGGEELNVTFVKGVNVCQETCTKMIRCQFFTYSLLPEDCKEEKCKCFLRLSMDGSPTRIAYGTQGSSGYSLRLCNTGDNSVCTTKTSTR
T3 sequence (P03952 391-638 limits assumed): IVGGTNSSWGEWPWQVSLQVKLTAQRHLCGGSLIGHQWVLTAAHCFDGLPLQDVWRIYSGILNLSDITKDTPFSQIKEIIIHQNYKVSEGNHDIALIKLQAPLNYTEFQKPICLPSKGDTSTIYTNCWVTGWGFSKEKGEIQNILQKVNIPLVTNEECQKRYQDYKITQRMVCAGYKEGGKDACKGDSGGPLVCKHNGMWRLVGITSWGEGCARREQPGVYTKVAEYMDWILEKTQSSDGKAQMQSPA
Procedure: (§5) All reactions were carried out in TBS, pH 7.5 (50 mM Tris-HCL, pH 7.5, containing 100 mM NaCl), containing 0.1 mg bovine serum albumin/ml (TBS/BSA) and 2 mM Ca2+(TBS/BSA/Ca2+, pH 7.5). […] The inhibition constant, K* was determined using the nonlinear regression data analysis program Grafit.
(§6) Ki values were obtained by correcting for the effect of substrate according to Beith (38), using equation 2, where (S) is substrate concentration and KM is specific for each enzyme.

[12] = target: T2, human plasmin; assay: amidolytic inhibition of 3 nM plasmin, tight-binding equation
Procedure: as §5

[13] = target: T4, human FXIa (Homo sapiens, UniProt P03951); assay: Protease inhibition assay, factor XIa; format: biochemical; conditions: 1 nM FXIa
T4 construct: Purified human FXIa, thrombin (IIa) and plasmin were purchased; purchased Hematologic Technologies Inc (Essex Junction, VT)
T4 sequence (P03951 19-387 limits assumed): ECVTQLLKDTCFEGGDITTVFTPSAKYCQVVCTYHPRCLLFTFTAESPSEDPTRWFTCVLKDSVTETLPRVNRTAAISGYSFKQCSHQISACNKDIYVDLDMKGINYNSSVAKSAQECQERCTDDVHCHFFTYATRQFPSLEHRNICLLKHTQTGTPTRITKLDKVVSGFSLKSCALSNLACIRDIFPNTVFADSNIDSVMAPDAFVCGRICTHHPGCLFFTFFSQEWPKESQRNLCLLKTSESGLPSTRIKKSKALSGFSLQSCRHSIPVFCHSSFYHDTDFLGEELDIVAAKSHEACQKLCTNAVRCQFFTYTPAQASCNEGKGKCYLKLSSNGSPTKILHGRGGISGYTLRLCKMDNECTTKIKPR
T4 sequence (P03951 388-625 limits assumed): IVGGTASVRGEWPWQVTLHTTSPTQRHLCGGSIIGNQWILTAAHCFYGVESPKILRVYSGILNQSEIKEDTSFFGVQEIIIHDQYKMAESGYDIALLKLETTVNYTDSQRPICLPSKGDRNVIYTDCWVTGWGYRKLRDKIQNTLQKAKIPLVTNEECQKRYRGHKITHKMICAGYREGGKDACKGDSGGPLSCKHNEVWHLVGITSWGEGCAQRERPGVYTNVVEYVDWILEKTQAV
Procedure: as §5, §6

[14] = target: T5, FVIIa/sTF (Homo sapiens, UniProt P08709); assay: Protease inhibition assay, FVIIa/soluble tissue factor; format: biochemical; conditions: 20 nM FVIIa/sTF; read-out: Ki for Factor VIIa/soluble tissue factor
T5 construct: human factor VIIa (FVIIa) was prepared as described previously (34)
T5 sequence (P08709 213-466 limits assumed): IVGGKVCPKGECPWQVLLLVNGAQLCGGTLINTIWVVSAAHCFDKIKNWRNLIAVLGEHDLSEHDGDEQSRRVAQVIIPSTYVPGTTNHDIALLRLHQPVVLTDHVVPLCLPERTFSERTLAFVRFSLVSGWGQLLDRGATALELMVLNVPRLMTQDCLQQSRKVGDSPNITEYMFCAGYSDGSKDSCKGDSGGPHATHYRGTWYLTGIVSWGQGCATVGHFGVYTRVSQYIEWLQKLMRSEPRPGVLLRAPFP
T5 sequence (P08709 61-212 limits assumed): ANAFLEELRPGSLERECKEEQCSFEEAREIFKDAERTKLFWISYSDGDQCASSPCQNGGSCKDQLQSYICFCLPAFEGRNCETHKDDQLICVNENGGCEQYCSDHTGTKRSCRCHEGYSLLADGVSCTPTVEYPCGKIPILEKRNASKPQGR
T5 sequence (P13726 33-251 partner limits assumed): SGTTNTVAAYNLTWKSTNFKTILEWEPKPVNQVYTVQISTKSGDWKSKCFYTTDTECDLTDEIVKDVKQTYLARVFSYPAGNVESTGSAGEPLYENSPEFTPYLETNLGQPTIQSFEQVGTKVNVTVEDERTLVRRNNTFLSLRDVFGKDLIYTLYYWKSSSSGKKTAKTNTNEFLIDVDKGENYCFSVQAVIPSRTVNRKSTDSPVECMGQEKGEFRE
Procedure: as §5, §6

NCCCCCC(=O)O [EACA, ε-aminocaproic acid]
Fibroblast cell viability (FIG. 5) [1]: not significantly different from the untreated cells
Fibroblasts cytotoxicity, CellTox green (FIG. 8) [2]: significant toxicity
HUVEC cytotoxicity, CellTox green (FIG. 7) [3]: only observed in skin fibroblasts
HUVEC viability (FIG. 4) [4]: not significantly different from the untreated cells
G [5]: 2388.0 ± 49.6 dyn/cm^2
G ([5]; inhibitor 200 μM): 153.25 ± 9.8 dyn/cm^2
LY30 ([5]; inhibitor 200 μM): 0%
LY60 ([5]; inhibitor 200 μM): 0%
MA ([5]; inhibitor 200 μM): 3.20 ± 0.71 mm
G ([5]; inhibitor 500 μM): 747.75 ± 14.8 dyn/cm^2
LY30 ([5]; inhibitor 500 μM): 0%
LY60 ([5]; inhibitor 500 μM): 0%
MA ([5]; inhibitor 500 μM): 13.15 ± 0.64 mm
G ([5]; inhibitor 1000 μM): 1070.1 ± 35.0 dyn/cm^2
LY30 ([5]; inhibitor 1000 μM): 0%
LY60 ([5]; inhibitor 1000 μM): 16.8 ± 0.35%
MA ([5]; inhibitor 1000 μM): 16.40 ± 0.28 mm
LY30 ([5]; inhibitor 3000 μM): 0%
LY60 ([5]; inhibitor 3000 μM): 0.6 ± 0.04%
MA ([5]; inhibitor 3000 μM): 32.60 ± 0.71 mm
G restored, relative to blood without plasmin ([5]; […] plasmin, 3 mM EACA): ~50%
MA restored, relative to blood without plasmin ([5]; […] plasmin, 3 mM EACA): ~67%

B1: KD1-L17R-KT (designed binder)
chain: MGSSHHHHHHSSGHIDDDDKNAEICLLPLDYGPCRARLLRYYYDRYTQSCRQFLYGGCEGNANNFYTWEACDDACWRIEK
notes: also called KD1SM; single mutant
Ki [6]: > 3000 nM
TEG G, 1 µM inhibitor, whole blood + 1.5 µM plasmin [7]: 329 dyn/cm^2
TEG G, 2 µM inhibitor, whole blood + 1.5 µM plasmin [7]: 599 dyn/cm^2
TEG G, 3 µM inhibitor, whole blood + 1.5 µM plasmin [7]: 683 dyn/cm^2
TEG G, 5 µM inhibitor, whole blood + 1.5 µM plasmin [7]: 2320 dyn/cm^2
TEG G, 7.5 µM inhibitor, whole blood + 1.5 µM plasmin [7]: 2530 dyn/cm^2
TEG LY30, 1 µM inhibitor, whole blood + 1.5 µM plasmin [7]: 10.1%
TEG LY30, 2 µM inhibitor, whole blood + 1.5 µM plasmin [7]: 0%
TEG LY30, 3 µM inhibitor, whole blood + 1.5 µM plasmin [7]: 0%
TEG LY30, 5 µM inhibitor, whole blood + 1.5 µM plasmin [7]: 0%
TEG LY30, 7.5 µM inhibitor, whole blood + 1.5 µM plasmin [7]: 0%
TEG LY60, 1 µM inhibitor, whole blood + 1.5 µM plasmin [7]: 28.4%
TEG LY60, 2 µM inhibitor, whole blood + 1.5 µM plasmin [7]: 4.95%
TEG LY60, 3 µM inhibitor, whole blood + 1.5 µM plasmin [7]: 19.9%
TEG LY60, 5 µM inhibitor, whole blood + 1.5 µM plasmin [7]: 12.3%
TEG LY60, 7.5 µM inhibitor, whole blood + 1.5 µM plasmin [7]: 5%
TEG MA, 1 µM inhibitor, whole blood + 1.5 µM plasmin [7]: 6.45 mm
TEG MA, 2 µM inhibitor, whole blood + 1.5 µM plasmin [7]: 11.8 mm
TEG MA, 3 µM inhibitor, whole blood + 1.5 µM plasmin [7]: 12.3 mm
TEG MA, 5 µM inhibitor, whole blood + 1.5 µM plasmin [7]: 31.4 mm
TEG MA, 7.5 µM inhibitor, whole blood + 1.5 µM plasmin [7]: 33.9 mm
Ki [8]: 0.9 nM
IC50 (read off the curve) [9]: ~3 nM
Max OD405 ([10]; 0.5 μM inhibitor + tPA): 1.48 ± 0.11
OD405 at 60 min ([10]; 0.5 μM inhibitor + tPA): 0.85 ± 0.14
Fibrinolysis midpoint time ([10]; 0.5 μM inhibitor + tPA, 7 ± 1 without inhibitor): 10 ± 0.76 min
Fibrinolysis midpoint time ([10]; 1.0 μM inhibitor + tPA): 13 ± 0.5 min
Max OD405 ([10]; 1.0 μM inhibitor + tPA): 1.56 ± 0.10
OD405 at 60 min ([10]; 1.0 μM inhibitor + tPA): 0.87 ± 0.11
Fibrinolysis midpoint time ([10]; 3.0 μM inhibitor + tPA): 31 ± 1.75 min
Max OD405 ([10]; 3.0 μM inhibitor + tPA): 1.74 ± 0.05
OD405 at 60 min ([10]; 3.0 μM inhibitor + tPA): 0.80 ± 0.13
Fibrinolysis midpoint time ([10]; 4.0 μM inhibitor + tPA): 43 ± 1^ minutes
Max OD405 ([10]; 4.0 μM inhibitor + tPA): 1.62 ± 0.11
OD405 at 60 min ([10]; 4.0 μM inhibitor + tPA): 0.92 ± 0.05
Fibrinolysis midpoint time ([10]; 5.0 μM inhibitor + tPA): 55 ± 1.5 min
Max OD405 ([10]; 5.0 μM inhibitor + tPA): 1.69 ± 0.08
OD405 at 60 min ([10]; 5.0 μM inhibitor + tPA): 1.13 ± 0.06
Ki [11]: > 3000 nM
Ki [12]: 0.9 nM
Ki [13]: > 3000 nM
Ki [14]: > 3000 nM
